{"source": "patent US20210340225A1", "target": "recombinantly expressed RBD ([change] domain) of bat sarbecovirus WIV16 (bat SARS-like coronavirus WIV16)"}
{"substance": "47D11 fully human IgG1 monoclonal antibody", "values": [{"measurement": "EC50 (read off the curve)", "result": 0.09, "unit": "µg/mL"}]}
